B1: Siah1 (protein)
chain: MSRQTATALPTGTSKCPPSQRVPALTGTTASNNDLASLFECPVCFDYVLPPILQCQSGHLVCSNCRPKLTCCPTCRGPLGSIRNLAMEKVANSVLFPCKYASSGCEITLPHTEKADHEELCEFRPYSCPCPGASCKWQGSLDAVMPHLMHQHKSITTLQGEDIVFLATDINLPGAVDWVMMQSCFGFHFMLVLEKQEKYDGHQQFFAIVQLIGTRKQAENFAYRLELNGHRRRLTWEATPRSIHEGIATAIMNSDCLVFDTSIAQLFAENGNLGINVTISMC
Degradation by Siah1 (Nkx3.2 (99-320)): +
Degradation by Siah1 (Nkx3.2 (150-320)): -
Degradation by Siah1 (Nkx3.2 (105-327)): ++
Degradation by Siah1 (Nkx3.2 (1-320)): +
Degradation by Siah1 (Nkx3.2 (99-333)): ++
Degradation by Siah1 (Nkx3.2 (123-333)): -
Degradation by Siah1 (Nkx3.2 (156-316)): ++
Degradation by Siah1 (Nkx3.2 (153-318)): -
Degradation by Siah1 (Nkx3.2 (123-320)): -
Degradation by Siah1 (Nkx3.2 (112-320)): -
Degradation by Siah1 (Nkx3.2 (162-312)): ++
Degradation by Siah1 (Nkx3.2 (1-307)): -
Degradation by Siah1 (Nkx3.2 (110-324)): +++
Degradation by Siah1 (Nkx3.2 (99-330)): +++
Degradation by Siah1 (Nkx3.2 (1-333)): +++
Degradation by Siah1 (Nkx3.2 (130-320)): -
Degradation by Siah1 (Nkx3.2 (159-314)): ++
Degradation by Siah1 (Nkx3.2 (112-333)): ++
Degradation by Siah1 (Nkx3.2 (42-333)): +++
Degradation by Siah1 (Nkx3.2 (99-327)): +++
Degradation by Siah1 (Nkx3.2 (165-310)): ++

From patent US20190351015
